Results as given in US20220242919A1 (LIMMATECH BIOLOGICS, published 2022).

Biological target: T1, recombinant human VEGF-R1 (human, UniProt P17948 27-756, limits assumed)
T1 construct: Bought (Acro Biosystems), used as positive control analyte in SPR; also called rhVEGF-R1; VEGF receptor
Assay: SPR, Biacore T200, 25 C, VEGF165 immobilized, multi cycle kinetics
Description: Surface plasmon resonance spectroscopy. The kinetic parameters of the VEGF-binders were measured using a Biacore T200 instrument at 25° C. The bait ligand (recombinant human VEGF₁₆₅, Acro Biosystems) was covalently immobilized on a sensor chip Cl surface at three different densities. The prey analyte (different DARPins, or as a positive control, recombinant human VEGF-R1 (Acro Biosystems)) was analysed using multi cycle kinetics in 10 mM HEPES pH 7.4, 150 mM NaCl, 3 mM EDTA, 0.05% Tween 20 at a flow rate of 50 μl/min.
For determination of the kinetic parameters, the concentration of the probe was measured using a BCA assay (Pierce) and the molecular weight was determined via the SPR signal measured at saturating conditions (Rₘₐₓ). See Table 4 for the MW determined via SPR. Each probe was measured twice on sensor surfaces with three different densities of covalently immobilized recombinant human VEGF₁₆₅. The KD of rhVEGF-R1 is in the double-digit nanomolar range. The unmodified DARPin has a single-digit picomolar affinity to human VEGF₁₆₅, as reported by Stahl et al. (Angiogenesis 16, 101-111 (2013)).

T1 sequence (P17948 27-756 limits assumed): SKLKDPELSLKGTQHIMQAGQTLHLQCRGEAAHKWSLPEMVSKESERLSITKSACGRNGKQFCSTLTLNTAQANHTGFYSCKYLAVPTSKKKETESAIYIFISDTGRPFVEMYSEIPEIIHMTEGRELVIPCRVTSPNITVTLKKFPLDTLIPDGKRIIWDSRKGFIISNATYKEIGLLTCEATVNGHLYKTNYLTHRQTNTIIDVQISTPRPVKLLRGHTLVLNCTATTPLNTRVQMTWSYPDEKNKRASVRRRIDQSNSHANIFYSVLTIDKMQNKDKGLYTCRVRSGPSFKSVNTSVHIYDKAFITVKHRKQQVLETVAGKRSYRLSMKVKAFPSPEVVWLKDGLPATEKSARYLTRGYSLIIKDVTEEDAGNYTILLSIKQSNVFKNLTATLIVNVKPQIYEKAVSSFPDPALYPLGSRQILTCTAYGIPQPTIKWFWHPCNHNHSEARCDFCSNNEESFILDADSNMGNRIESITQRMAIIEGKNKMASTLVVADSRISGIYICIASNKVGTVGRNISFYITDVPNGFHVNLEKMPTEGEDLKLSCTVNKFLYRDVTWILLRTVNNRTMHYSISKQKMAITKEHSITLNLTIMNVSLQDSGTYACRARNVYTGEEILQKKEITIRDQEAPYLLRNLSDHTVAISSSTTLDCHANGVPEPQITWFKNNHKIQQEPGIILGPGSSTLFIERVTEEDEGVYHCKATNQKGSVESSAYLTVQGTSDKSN

Kd: 0.069 nM
koff: 8.1e-05 s⁻¹
kon: 1.1e+06 M⁻¹ s⁻¹
B1: recombinant human VEGF165 (ligand, UniProt P15692-4 27-191, looked up)
chain: APMAEGGGQNHHEVVKFMDVYQRSYCHPIETLVDIFQEYPDEIEYIFKPSCVPLMRCGGCCNDEGLECVPTEESNITMQIMRIKPHQGQHIGEMSFLQHNKCECRPKKDRARQENPCGPCSERRKHLFVQDPQTCKCSCKNTDSRCKARQLELNERTCRCDKPRR
notes: Bought (Acro Biosystems); covalently immobilized on a Biacore sensor chip C1 surface at three densities; also called VEGF-A
